Test results as given in patent publication US20210009686A1 (BEIJING XUANYI PHARMASCIENCES, published 2021).
Residue numbers refer to the chain shown, from its start.

B1: chimeric Ab 1-B13-A (antibody, V domains shown)
VH: QVQLQQSGAELARPGASVKLSCKASGYTFTVWSMSWVKQRTGQGLQWIGEIYPKSGNTHYNEKFKGKATLTADKSSSTVYMQLSSLTSEDSAVYFCARAYYGNSFAYWGQGTLVTVPA
VL: DIVMTQSPSPLTVTAGEKATMSCKSSQSLLNSGNQRNYLTWYQQKPGQPPKLLIYWASTRESGVPDRFTGSGSGTDFSLTISSVQAEDLAVYYCQNDFIYPFTFGSGTKLEIK
B2: chimeric Ab 10-J10-B (antibody, V domains shown)
VH: B1 VH with V31S, M34I, Q46E, K54R, G56D, T58I, P117S
VL: B1 VL with P10S, A19V, S22T, S28I, R36K, V91I, F98Y, I99Y
notes: also called 10-110-B; 10-10-B
B3: chimeric Ab 6-C5-A (antibody, V domains shown)
VH: EVQLVESGGGLVKPGGSRKLSCAASGFTFSDYGMHWVRQAPEKGLEWVAYISSGSSTIYYADTMKGRFTISRDNAKNTLFLQMTSLRSEDTAMYYCTRFARGNTMDYWGQGTSVTVSS
VL: DIVMTQSPSSLTVTAGEKVTMSCKSSQSLLNSGNQRNYLTWYQRKPGQPPKLLIYWASTRESGVPDRFTGSGSGTDFTLTISSVQAEDLTFYYCQNGYSYPLTFGAGTKLELK
B4: chimeric Ab 1-H16-A (antibody, V domains shown)
VH: B3 VH with H35Y, Y50F, Y60C, M64V, T97A, F99I, T104A
VL: B3 VL with K18R, Q35L, R36K, R44Q, S83T, T90A, F91V, G97D, S99F
B5: chimeric Ab 9-N14-A (antibody, V domains shown)
VH: B3 VH with H35Y, V48L, S56N, T57N, M64V, T97A, F99I, T104A, T115I
VL: B3 VL with R36K, R44Q, T90A, F91V, G97D, S99I, E111G
B6: chimeric Ab 2-D22-A (antibody, V domains shown)
VH: B3 VH with V48I, T57S, M64V, I70M, N77K, M83T, T97A, F99I, T104A, S117T
VL: B3 VL with T40A, R44Q, T90A, F91V, G97D
B7: chimeric Ab 7-G17-A (antibody, V domains shown)
VH: B3 VH with A24V, H35Y, M64V, I70M, T97A, F99I, T104A
VL: B3 VL with A15P, L30F, T40A, R44Q, T90A, F91V, G97D, S99F
B8: chimeric Ab 6-M11-A (antibody, V domains shown)
VH: B3 VH with L11S, S56N, I58F, A61T, M64V, S85G, T97A, A100T, T104A, M105L
VL: B3 VL with R36K, R44Q, I54L, F91V, G97A
B9: chimeric Ab 9-M7-A (antibody, V domains shown)
VH: EVQLVESGGALVKPGGSLKLSCAASGFTFSNYAMSWIRQTPEKRLEWVATIIIGGTYTYYPDSVKGRFTISRDNAKNTLYLQMSSLRSEDTALYYCARQVYGNSFAYWGQGTLVTVSA
VL: B1 VL with P10S, A19V, R36K, S78T, D97N, F98Y
B10: chimeric Ab 9-A13-B (antibody, V domains shown)
VH: B3 VH with T28S, Y50H, T97A
VL: B3 VL with R36K, R44Q, F91V
B11: chimeric Ab 9-B11-A (antibody, V domains shown)
VH: B3 VH with T57P, M64V, T97A, T104A
VL: B3 VL with R36K, R44Q, E61D, T90A, F91V, G97N, S99Y, K109N
B12: chimeric Ab 7-E20-A (antibody, V domains shown)
VH: B3 VH with Y59H, A61V, T97A, M105L
VL: B3 VL with L30F, S32T, R36K, R44Q, F91V
B13: chimeric Ab 7-B15-A (antibody, V domains shown)
VH: B3 VH with V48I, Y50H, T97A, A100V, T104A, M105L
VL: B3 VL with S22N, R36K, R44Q, F91V
B14: chimeric Ab 7-A21-A (antibody, V domains shown)
VH: B3 VH with H35Y, V48L, S56N, M64V, T97A, F99I, T104A
VL: B3 VL with R36K, R44Q, T90A, F91V, G97D, S99I, E111G
B15: chimeric Ab 10-K12-A (antibody, V domains shown)
VH: B3 VH with H35F, A49G, T57N, M64V, T97A, F99I, T104A
VL: B3 VL with R36K, R44Q, T90A, F91I, G97D, S99F
B16: chimeric Ab 9-C6-A (antibody, V domains shown)
VH: B3 VH with T97A, A100V, T104S
VL: B3 VL with M21L, R36K, R44Q, G47R, S83N, F91V, G97A
B17: chimeric Ab 1-M5-A (antibody, V domains shown)
VH: B9 VH with P14S, K19R, Y32N, L93F, T115S
VL: B1 VL with P10S, A19V, R36K, S78T, D97N, F98Y, I99F
B18: chimeric Ab 10-P12-A (antibody, V domains shown)
VH: EIQLQQSGAELVKPGTSVKISCKASGYSFTGYNMNWVKQSHGKSLEWIGNINPYYSNTNYNQRFKGKATLTVDKSSSTAYMQLNSLTSEDSAVYYCARHVRGNSFDYWGQGTTLTVSS
VL: DIVMTQSPSSLTVTAGERVTVGCKSRQSLFNSENQKNYLSWYQQKPGQPPKLLLYWTSTRESGVPERFTGSGSGTDFTLTISSVQAEDLAVYYCQNNYIYPFTFGSGTKLEIK

Legend:
claudin 18.2 (CLDN18.2) [1] = molecular target: T1, claudin 18.2 (CLDN18.2) (human); test: FACS, HEK293-CLDN18.2 cells
T1 construct: also called Claudin 18 isotype 2; HEK293-CLDN18.2
Protocol: The interaction of 20 purified chimeric antibodies with CLDN18.2 was assessed by in-cell ELISAs and FACS using HEK293-CLDN18.2 cells. […] The FACS assays were performed as follows: Serial dilutions for each antibody clone shown in Tables 7 and 8 were prepared and stained with HEK293-CLDN18.2 cells on ice for 30 min, with final antibody concentrations of 10 g/ml, 3 g/ml, 1 g/ml, 0.3 μg/ml, 0.1 μg/ml, 0.03 μg/ml, 0.01 μg/ml, and 0 μg/ml. […] Cells were washed, and analyzed by FACS.

claudin 18.2 (CLDN18.2) [2] = molecular target: T1, claudin 18.2 (CLDN18.2); test: in-cell ELISA, HEK293-CLDN18.2 cells
Protocol: (§1) In-cell ELISAs were performed as follows: 5×10³ HEK293-CLDN18.2 cells were seeded per well in a poly-L-lysine-coated 96-well plate. The plates were then incubated at 37° C. with 5% CO₂ for 2 days. Following incubation, culture media was removed from each well, and the HEK293-CLDN18.2 cells were blocked with 200 μl blocking buffer (3% BSA/PBS (pH 7.4)) per well for 1 hour at room temperature. Each hybridoma supernatant was incubated with cells at room temperature for 1 hour. Cells were gently washed 3 times with 200 μl PBS (pH 7.4) containing 1 mM Ca²⁺ and 0.5 mM Mg²⁺. Next, cells were incubated with 100 μl of HRP-conjugated goat anti-human IgG (H+L) antibody for 1 hour at room temperature. Following the incubation, the cells were washed three times with 200 μl PBS (pH 7.4) containing 1 mM Ca²⁺ and 0.5 mM Mg²⁺. 100 μl of 1-Step™ Ultra TMB-ELISA Substrate was added to each well, and the reactions were stopped by addition of 50 μl of stop solution. OD₄₅₀ was measured using CLARIOStar microplate reader. The in-cell ELISAs were repeated for each clone using HEK293-CLDN18.1 cells.
The in-cell ELISAs were performed as described above. […] Cells were washed, and analyzed by FACS.

claudin 18.1 (CLDN18.1) = molecular target: T2, claudin 18.1 (CLDN18.1) (human, UniProt P56856 1-261); test: in-cell ELISA, HEK293-CLDN18.1 cells
T2 construct: also called HEK293-CLDN18.1
T2 sequence (P56856 whole entry): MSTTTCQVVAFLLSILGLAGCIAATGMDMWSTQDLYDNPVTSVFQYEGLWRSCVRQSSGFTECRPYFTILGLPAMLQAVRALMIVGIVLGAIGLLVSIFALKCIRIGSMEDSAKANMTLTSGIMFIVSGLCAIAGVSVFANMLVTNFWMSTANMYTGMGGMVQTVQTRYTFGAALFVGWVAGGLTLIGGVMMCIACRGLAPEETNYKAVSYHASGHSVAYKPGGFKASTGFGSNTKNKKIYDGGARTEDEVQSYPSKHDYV
Protocol: as §1

Binder | EC50 (claudin 18.2 (CLDN18.2) [1]) [µg/mL] | EC50 (claudin 18.2 (CLDN18.2) [2]) [µg/mL] | binding result (claudin 18.1 (CLDN18.1))
B1 | 0.036 | 0.059 | 
B2 | 0.141 | 0.062 | no binding (tested: 1 µg/ml)
B3 | 0.044 | 0.058 | no binding (tested: 1 µg/ml)
B4 | 0.101 | 0.08 | 
B5 | 0.075 | 0.218 | no binding (tested: 1 µg/ml)
B6 | 0.051 | 0.065 | 
B7 | 0.033 | 0.098 | 
B8 | 0.026 | 0.098 | 
B9 | 0.095 | 0.154 | no binding (tested: 1 µg/ml)
B10 | 0.068 | 0.15 | 
B11 | 0.045 | 0.069 | no binding (tested: 1 µg/ml)
B12 | 0.05 | 0.198 | 
B13 | 0.032 | 0.066 | 
B14 | 0.134 | 0.23 | 
B15 | 0.075 | 0.05 | 
B16 | 0.032 | 0.491 | 
B17 | 0.044 | 0.042 | no binding (tested: 1 µg/ml)
B18 | 0.018 | 0.106 | 
